We go through three molecules from paper PMC4873976, “Structural basis for haem piracy from host haemopexin by Haemophilus influenzae” (Nature Communications, 2016).

Experiment [1] has as its target cysteine-less variant of HxuA^DEL (Haemophilus influenzae) (UniProt P44602). The experiment in a line: ITC; haemopexin or its fragments (~100 μM) in the syringe, HxuA (~10 μM) in the cell; 20 mM Na-phosphate pH 7.0, 25 °C; single-site model; apparent Ka. (In general: In ITC the heat of successive injections is recorded.)
Experiment [2] concerns the target T1, HxuA (cysteine-less variant, Cys855 and Cys861 replaced by serines; referred to as HxuA throughout) (Haemophilus influenzae, UniProt P44602 22-905, Cys855 replaced by serine | Cys861 replaced by serine).
T1 construct: also called WT; HxuAWT; source: E. coli BL21 with a pBAD24 derivative harbouring the hxuCBA operon; purified from the culture supernatant (ammonium sulfate, SEC, monoQ)
T1 sequence: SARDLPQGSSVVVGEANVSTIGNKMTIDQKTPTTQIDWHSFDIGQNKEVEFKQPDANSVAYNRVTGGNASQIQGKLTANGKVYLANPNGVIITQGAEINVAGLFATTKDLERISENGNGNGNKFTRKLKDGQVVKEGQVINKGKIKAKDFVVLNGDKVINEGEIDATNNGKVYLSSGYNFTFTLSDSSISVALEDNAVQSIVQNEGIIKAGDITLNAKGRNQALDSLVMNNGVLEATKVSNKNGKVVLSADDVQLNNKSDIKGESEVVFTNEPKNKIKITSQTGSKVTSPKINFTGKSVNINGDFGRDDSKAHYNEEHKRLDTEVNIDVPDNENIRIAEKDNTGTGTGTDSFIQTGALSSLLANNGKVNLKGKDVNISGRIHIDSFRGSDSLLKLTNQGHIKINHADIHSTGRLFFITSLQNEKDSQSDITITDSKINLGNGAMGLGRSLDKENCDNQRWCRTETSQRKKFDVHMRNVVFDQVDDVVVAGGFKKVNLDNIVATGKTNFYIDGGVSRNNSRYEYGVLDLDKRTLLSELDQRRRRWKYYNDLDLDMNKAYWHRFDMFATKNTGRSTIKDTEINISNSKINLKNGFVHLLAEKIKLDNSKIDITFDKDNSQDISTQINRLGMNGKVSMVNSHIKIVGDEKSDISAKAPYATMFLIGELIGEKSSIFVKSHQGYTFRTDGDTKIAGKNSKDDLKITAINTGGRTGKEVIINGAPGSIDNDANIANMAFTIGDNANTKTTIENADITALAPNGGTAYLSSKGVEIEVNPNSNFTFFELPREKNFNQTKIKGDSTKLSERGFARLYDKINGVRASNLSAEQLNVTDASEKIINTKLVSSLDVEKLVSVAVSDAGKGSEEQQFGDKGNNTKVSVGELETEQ
In words: ITC; haemopexin or its fragment (~100 uM) in the syringe, HxuA or mutant (~10 uM) in the cell; 25 °C; 20 mM Na-phosphate pH 7.0; single-site model; apparent Ka; mean of one to three experiments. As to conditions: both partners purified.

The target of experiment [3] is T2, HxuA^DEL (M loop deletion), cysteine-less (dm) variant (Haemophilus influenzae, UniProt P44602 22-905, additional Pro codon replacing the initial 712-728 sequence | Cys855 replaced …).
T2 construct: source: E. coli BL21 with a pBAD24 derivative harbouring the hxuCBA operon; purified from the culture supernatant (same protocol as HxuA)
T2 sequence: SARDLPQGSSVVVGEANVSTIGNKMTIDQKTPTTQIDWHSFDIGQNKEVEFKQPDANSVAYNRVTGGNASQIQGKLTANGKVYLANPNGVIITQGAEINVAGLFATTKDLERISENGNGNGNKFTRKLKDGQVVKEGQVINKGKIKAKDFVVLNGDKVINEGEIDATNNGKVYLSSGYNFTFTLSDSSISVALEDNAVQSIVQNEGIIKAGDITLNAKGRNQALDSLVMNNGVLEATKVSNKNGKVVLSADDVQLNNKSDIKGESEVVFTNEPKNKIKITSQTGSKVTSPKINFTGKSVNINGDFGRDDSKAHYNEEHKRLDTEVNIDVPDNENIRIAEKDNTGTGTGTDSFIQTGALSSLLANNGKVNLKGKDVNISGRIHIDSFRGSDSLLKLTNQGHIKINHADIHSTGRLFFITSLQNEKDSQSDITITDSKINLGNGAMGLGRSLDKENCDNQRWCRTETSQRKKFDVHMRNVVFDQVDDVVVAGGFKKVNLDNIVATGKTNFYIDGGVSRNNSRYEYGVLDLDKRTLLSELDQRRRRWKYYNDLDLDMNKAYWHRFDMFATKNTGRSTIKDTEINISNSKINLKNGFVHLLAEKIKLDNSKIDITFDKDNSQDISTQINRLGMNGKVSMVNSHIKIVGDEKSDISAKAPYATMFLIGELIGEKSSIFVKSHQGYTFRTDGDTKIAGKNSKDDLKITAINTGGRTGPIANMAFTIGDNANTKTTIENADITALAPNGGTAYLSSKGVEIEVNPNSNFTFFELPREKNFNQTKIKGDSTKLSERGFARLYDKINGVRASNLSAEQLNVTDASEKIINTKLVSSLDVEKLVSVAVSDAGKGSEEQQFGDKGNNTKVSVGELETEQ
The description is as above. Particulars: both partners purified.

The target in experiment [4] is T3, HxuA^Asp726Ala, cysteine-less (dm) variant (Haemophilus influenzae, UniProt P44602 22-905, Asp726Ala | Cys855 replaced by serine | Cys861 replaced by serine).
T3 construct: source: E. coli BL21 with a pBAD24 derivative harbouring the hxuCBA operon; purified from the culture supernatant (same protocol as HxuA)
T3 sequence: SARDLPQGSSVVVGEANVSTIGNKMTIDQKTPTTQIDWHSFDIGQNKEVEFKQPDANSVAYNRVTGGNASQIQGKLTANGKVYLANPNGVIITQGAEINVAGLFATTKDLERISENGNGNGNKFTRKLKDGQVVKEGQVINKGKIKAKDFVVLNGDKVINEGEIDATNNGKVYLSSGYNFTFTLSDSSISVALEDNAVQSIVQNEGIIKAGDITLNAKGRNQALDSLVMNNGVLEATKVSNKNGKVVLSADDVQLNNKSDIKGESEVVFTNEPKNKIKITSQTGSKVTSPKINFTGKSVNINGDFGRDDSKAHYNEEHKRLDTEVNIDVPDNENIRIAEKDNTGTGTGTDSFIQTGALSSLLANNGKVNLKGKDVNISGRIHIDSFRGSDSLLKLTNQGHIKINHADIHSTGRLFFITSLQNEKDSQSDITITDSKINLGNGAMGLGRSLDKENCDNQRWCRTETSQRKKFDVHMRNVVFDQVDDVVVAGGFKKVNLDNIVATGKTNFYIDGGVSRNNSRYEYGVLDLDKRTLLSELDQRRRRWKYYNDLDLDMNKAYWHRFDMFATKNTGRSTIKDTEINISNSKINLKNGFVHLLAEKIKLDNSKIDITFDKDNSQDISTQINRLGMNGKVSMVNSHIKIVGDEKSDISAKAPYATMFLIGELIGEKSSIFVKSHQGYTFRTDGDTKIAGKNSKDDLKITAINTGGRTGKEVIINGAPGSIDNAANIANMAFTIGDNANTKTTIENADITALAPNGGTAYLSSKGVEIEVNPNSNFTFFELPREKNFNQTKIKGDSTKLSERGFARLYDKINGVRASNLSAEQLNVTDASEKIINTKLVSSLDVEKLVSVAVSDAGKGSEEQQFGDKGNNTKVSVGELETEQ
The experiment is described as above. Particulars: both partners purified.

Experiment [5] concerns the target T4, HxuA, cysteine-less variant (cysteines 855 and 861 replaced by serines; referred to as HxuA throughout) (Haemophilus influenzae, UniProt P44602 22-905, cysteine at position 855 replaced by serine | cysteine at position 861 replaced …).
T4 construct: HxuA, haem-haemopexin utilisation protein A (TpsA cargo protein) of Haemophilus influenzae, called full-length, 884 residues, Ser1 to Gln884; Measured mass 96,467.6094 (theoretical 96,469.6926); also called HxuAdm; dm variant; source: E. coli BL21, pBAD24 derivative with the hxuCBA operon; purified from the culture supernatant (ammonium sulfate, SEC, monoQ)
T4 sequence: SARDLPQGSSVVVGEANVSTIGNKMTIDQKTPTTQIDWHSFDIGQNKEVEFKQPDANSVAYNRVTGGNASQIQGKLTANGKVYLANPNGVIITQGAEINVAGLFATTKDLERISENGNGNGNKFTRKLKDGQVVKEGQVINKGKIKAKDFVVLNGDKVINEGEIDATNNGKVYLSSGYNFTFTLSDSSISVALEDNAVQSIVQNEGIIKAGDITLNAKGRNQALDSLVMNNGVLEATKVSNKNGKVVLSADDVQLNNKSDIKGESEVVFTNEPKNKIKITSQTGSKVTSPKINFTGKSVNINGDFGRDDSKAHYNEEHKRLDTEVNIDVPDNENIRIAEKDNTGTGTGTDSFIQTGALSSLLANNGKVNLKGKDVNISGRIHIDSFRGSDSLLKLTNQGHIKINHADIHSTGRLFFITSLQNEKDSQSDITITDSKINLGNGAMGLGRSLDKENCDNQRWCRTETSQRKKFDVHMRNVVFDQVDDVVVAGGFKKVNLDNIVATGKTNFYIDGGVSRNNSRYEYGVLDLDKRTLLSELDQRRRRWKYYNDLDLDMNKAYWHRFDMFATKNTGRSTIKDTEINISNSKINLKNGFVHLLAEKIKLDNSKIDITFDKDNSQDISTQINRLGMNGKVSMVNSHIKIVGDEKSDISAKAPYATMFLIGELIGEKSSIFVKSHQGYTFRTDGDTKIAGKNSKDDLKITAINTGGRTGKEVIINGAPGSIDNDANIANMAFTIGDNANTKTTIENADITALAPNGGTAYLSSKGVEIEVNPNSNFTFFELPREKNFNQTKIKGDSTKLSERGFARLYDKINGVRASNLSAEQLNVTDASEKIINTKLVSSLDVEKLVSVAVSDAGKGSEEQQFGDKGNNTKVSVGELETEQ
In words: ITC; haemopexin or its fragments (~100 μM) in the syringe, HxuA (~10 μM) in the cell; 20 mM Na-phosphate pH 7.0, 25 °C; single-site model; apparent Ka. Particulars: both partners purified.

The term stoichiometry N denotes a count of units in the complex or per binding partner. As to “rabbit haem-haemopexin (from UniProt P20058 26-460) (natural protein)”, in experiment [1], the Ka came to 1.7e+08 M⁻¹, the dH was -13 kcal/mol and the stoichiometry N was 1.

B1: rabbit haemopexin (haem-free) (natural protein)
chain: VPLTSAHGNVTEGESGTKPEADVIEQCSDGWSFDATTLDDNGTMLFFKDEFVWKSHRGIRELISERWKNFIGPVDAAFRHGHTSVYLIKGDKVWVYTSEKNEKVYPKSLQDEFPGIPFPLDAAVECHRGECQDEGILFFQGNRKWFWDLTTGTKKERSWPAVGNCTSALRWLGRYYCFQGNQFLRFNPVSGEVPPGYPLDVRDYFLSCPGRGHRSSHRNSTQHGHESTRCDPDLVLSAMVSDNHGATYVFSGSHYWRLDTNRDGWHSWPIAHQWPQGPSTVDAAFSWEDKLYLIQDTKVYVFLTKGGYTLVNGYPKRLEKELGSPPVISLEAVDAAFVCPGSSRLHIMAGRRLWWLDLKSGAQATWTELPWPHEKVDGALCMEKPLGPNSCSTSGPNLYLIHGPNLYCYRHVDKLNAAKNLPQPQRVSRLLGCTH
notes: Glycoprotein from serum; also called Hpx; hemopexin; source: purified from rabbit serum (Biosera)
As to B1, the Ka in experiment [2], in experiment [3] and in experiment [4] was above 1e+09 M⁻¹ throughout. The results for the “stoichiometry N” value in experiment [2], in experiment [3] and in experiment [4] were 0.8, 1.07 and 0.68, respectively.

B2: rabbit haemopexin (haem-free) (natural protein)
chain: VPLTSAHGNVTEGESGTKPEADVIEQCSDGWSFDATTLDDNGTMLFFKDEFVWKSHRGIRELISERWKNFIGPVDAAFRHGHTSVYLIKGDKVWVYTSEKNEKVYPKSLQDEFPGIPFPLDAAVECHRGECQDEGILFFQGNRKWFWDLTTGTKKERSWPAVGNCTSALRWLGRYYCFQGNQFLRFNPVSGEVPPGYPLDVRDYFLSCPGRGHRSSHRNSTQHGHESTRCDPDLVLSAMVSDNHGATYVFSGSHYWRLDTNRDGWHSWPIAHQWPQGPSTVDAAFSWEDKLYLIQDTKVYVFLTKGGYTLVNGYPKRLEKELGSPPVISLEAVDAAFVCPGSSRLHIMAGRRLWWLDLKSGAQATWTELPWPHEKVDGALCMEKPLGPNSCSTSGPNLYLIHGPNLYCYRHVDKLNAAKNLPQPQRVSRLLGCTH
notes: haemopexin, rabbit, serum glycoprotein, called full-length; two MMP domains (residues 1-208 and 228-435) joined by a linker; Glycoprotein from serum; also called Hpx; full-length haemopexin; source: purified from rabbit serum (Biosera): perchloric acid, PEG 3400, S-sepharose, mono Q, SEC
Regarding B2, the dH in experiment [5] was -52.7 kcal/mol.
